Experimental data published in patent EP4713368A1 (dated 2026).
Changes are numbered by the printed parent chain.

B1: Ab No. 3 (antibody, V domains shown)
VH: QVQLVQSGAEVKKPGSSVKVSCKASGGTFSSYAISWVRQAPGQGLEWMGGIIPISGTANYAQKFQGRVTITADESTSTAYMELSSLRSEDTAVYYCAKALAPGIPQWGQGTLVTVSS
VL: DIQMTQSPSSLSASVGDRVTITCRASQSISSYLNWYQQKPGKAPKLLIYAASSLQSGVPSRFSGSGSGTDFTLTISSLQPEDFATYYCQQAYDDPTFGGGTKVEIK
notes: IgG format
B2: Ab No. 4 (antibody, V domains shown)
VH: B1 VH
VL: DIQMTQSPSSLSASVGDRVTITCRASQSISRYLNWYQQKPGKAPKLLIYGASSLQSGVPSRFSGSGSGTDFTLTISSLQPEDFATYYCQQAFSSPITFGGGTKVEIK
notes: IgG format
B3: Ab No. 27 (antibody, V domains shown)
VH: EVQLLESGGGLVQPGGSLRLSCAASGFTFSNYAMSWVRQAPGKGLEWVSAISGSGGSTYYADSVKGRFTISRDNSKNTLYLQMDSLRAEDTAVYYCASFGDIAVAGAGFVNWGQGTLVTVSS
VL: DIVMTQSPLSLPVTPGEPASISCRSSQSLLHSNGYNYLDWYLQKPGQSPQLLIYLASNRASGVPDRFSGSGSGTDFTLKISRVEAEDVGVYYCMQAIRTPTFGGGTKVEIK
notes: IgG format
B4: Ab No. 13 (antibody, V domains shown)
VH: QVQLVQSGAEVKKPGSSVKVSCKASGGTFSSYAISWVRQAPGQGLEWMGGIIPISGTANYAQKFQGRVTITADESTSTAYMELSSLRSEDTAVYYCARGGIALSAGPSNIWGQGTLVTVSS
VL: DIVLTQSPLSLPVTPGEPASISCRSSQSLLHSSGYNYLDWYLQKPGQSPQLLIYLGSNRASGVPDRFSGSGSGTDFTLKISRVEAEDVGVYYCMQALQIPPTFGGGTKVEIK
notes: IgG format
B5: Ab No. 15 (antibody, V domains shown)
VH: B4 VH with G100S, I101L, A102S, S104V, A105S, G106Y, P107G, S108P, N109A, I110V
VL: EIVMTQSPATLSVSPGERATLSCRASQSVSSNLAWYQQKPGQAPRLLIYGASTRATGIPARFSGSGSGTEFTLTISSLQSEDFAVYYCQQYITHPPTFGGGTKVEIK
notes: IgG format
B6: Ab No. 12 (antibody, V domains shown)
VH: QVQLVQSGAEVKKPGSSVKVSCKASGGTFSSYAISWVRQAPGQGLEWMGGIIPISGTANYAQKFQGRVTITADESTSTAYMELSSLRSEDTAVYYCARGGIALHRSSSGLLWGRGTLVTVSS
VL: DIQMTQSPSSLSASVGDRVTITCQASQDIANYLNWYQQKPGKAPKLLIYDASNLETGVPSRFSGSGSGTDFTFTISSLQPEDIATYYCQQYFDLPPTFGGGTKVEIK
notes: IgG format
B7: Ab No. 10 (antibody, V domains shown)
VH: QVQLVQSGAEVKKPGSSVKVSCKASGGTFSSYAISWVRQAPGQGLEWMGGIIPISGTANYAQKFQGRVTITADESTSTAYMELSSLRSEDTAVYYCARDKGGLGRGGRYWGQGTLVTVSS
VL: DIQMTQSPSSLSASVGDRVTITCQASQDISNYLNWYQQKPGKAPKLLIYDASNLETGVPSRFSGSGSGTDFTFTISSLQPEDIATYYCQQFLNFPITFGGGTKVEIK
notes: IgG format
B8: Ab No. 18 (antibody, V domains shown)
VH: B7 VH with D99P, K100E, G101K, L103F, G104T, R105S, G107L, R108V, Y109D
VL: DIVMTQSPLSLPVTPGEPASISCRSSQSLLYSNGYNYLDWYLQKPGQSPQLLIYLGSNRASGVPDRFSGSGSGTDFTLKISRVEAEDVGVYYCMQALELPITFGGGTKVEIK
notes: IgG format
B9: Ab No. 16 (antibody, V domains shown)
VH: B7 VH with D99L, K100Y, G101H, G102I, L103G, G104T, R105T, G107Y, R108P
VL: B1 VL with A50G, A91S, D93Y
notes: IgG format
B10: Ab No. 22 (antibody, V domains shown)
VH: B7 VH with A97V, D99A, K100R, G102I, L103V, R105P, G106D, G107E, R108G, Y109P
VL: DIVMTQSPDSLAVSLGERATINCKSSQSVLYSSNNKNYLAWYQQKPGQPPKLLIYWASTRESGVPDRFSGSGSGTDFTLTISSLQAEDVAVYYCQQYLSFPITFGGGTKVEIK
notes: IgG format
B11: Ab No. 19 (antibody, V domains shown)
VH: B7 VH with D99Q, K100Y, G102T, L103F, G104A, R105F, G106Y, G107S, R108D
VL: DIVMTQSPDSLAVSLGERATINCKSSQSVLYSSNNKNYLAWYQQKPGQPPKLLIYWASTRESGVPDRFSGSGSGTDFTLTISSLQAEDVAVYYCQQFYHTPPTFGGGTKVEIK
notes: IgG format
B12: Ab No. 23 (antibody, V domains shown)
VH: B7 VH with A97V, D99A, K100R, G102I, L103V, R105P, G106D, G107E, R108G, Y109P
VL: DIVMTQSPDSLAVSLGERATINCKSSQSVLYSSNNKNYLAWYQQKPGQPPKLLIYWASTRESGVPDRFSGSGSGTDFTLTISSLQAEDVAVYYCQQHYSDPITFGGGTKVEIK
notes: IgG format
B13: Ab No. 46 (antibody, V domains shown)
VH: QVQLVQSGAEVKKPGSSVKVSCKASGGTFSSYAISWVRQAPGQGLEWMGGIIPISGTTNYAQKFQGRVTITADESTSTAYMELSSLRSEDTAVYYCARHSSSWGTAITSDYWGQGTLVTVSS
VL: QSVLTQPPSVSGAPGQRVTISCTGSGSNIGAGYDVHWYQQLPGTAPKLLIYGNTNRPSGVPDRFSGSKSGTSASLAITGLQAEDEADYYCQSNDNSLRGILFGGGTKLTVL
notes: IgG format
B14: Ab No. 14 (antibody, V domains shown)
VH: QVQLVQSGAEVKKPGSSVKVSCKASGGTFSSYAISWVRQAPGQGLEWMGGIIPISGTANYAQKFQGRVTITADESTSTAYMELSSLRSEDTAVYYCARGSLSLAAETPLWGRGTLVTVSS
VL: EIVLTQSPATLSLSPGERATLSCRASQSVSSYLAWYQQKPGQAPRLLIYDASKRATGIPARFSGSGSGTDFTLTISSLEPEDFAVYYCQQYLNFPITFGGGTKVEIK
notes: IgG format
B15: Ab No. 17 (antibody, V domains shown)
VH: QVQLVQSGAEVKKPGSSVKVSCKASGGTFSSYAISWVRQAPGQGLEWMGGVIPISGTANYAQKFQGRVTITADESTSTAYMELSSLRSEDTAVYYCARLYHLALAPAWGQGTLVTVSS
VL: B14 VL with L4M, K53N, Y91A, L92V, F94L
notes: IgG format
B16: Ab No. 2 (antibody, V domains shown)
VH: QVQLVQSGAEVKKPGASVKVSCKASGYTFTSYAMHWVRQAPGQRLEWMGWINAGTGATKYSQKFQGRVTITRDTSASTAYMELSSLRSEDTAVYYCARDLVHSYGLLPGWGQGTLVTVSS
VL: B14 VL with K53N, L92S, F94W, I96F
notes: IgG format
B17: Ab No. 21 (antibody, V domains shown)
VH: QVQLVQSGAEVKKPGSSVKVSCKASGGTFSSYAISWVRQAPGQGLEWMGGIIPISGTANYAQKFQGRVTITADESTSTAYMELSSLRSEDTAVYYCTRDLGFGAIRDTWGQGTLVTVSS
VL: B14 VL with Y36F, K53N, Y91S, F94L
notes: IgG format
B18: Ab No. 20 (antibody, V domains shown)
VH: B17 VH
VL: B14 VL with K53N, Y91S, L92N, F94L
notes: IgG format
B19: Ab No. 57 (antibody, V domains shown)
VH: QVQLQESGPGLVKPSETLSLTCTVSGGSISSYYWSWIRQPPGKGLEWIGSIYYSGSTNYNPSLKSRVTISVDTSKNQFSLKLSSVTAADTAVYYCARTEVGATRPREDFQHWGQGTLVTVSS
VL: QSVLTQPPSVSAAPGQKVTISCSGSSSNIGNNYVSWYQQLPGTAPKLLIYDNNKRPSGIPDRFSGSKSGTSATLGITGLQTGDEADYYCGTWDISLGWVFGGGTKLTVL
notes: IgG format
B20: Ab No. 1 (antibody, V domains shown)
VH: QVQLVQSGAEVKKPGASVKVSCKASGYTFTSYAMHWVRQAPGQRLEWMGWINAGTGATKYSQKFQGRVTITRDTSASTAYMELSSLRSEDTAVYYCAKDIGSGFYELSLDYWGQGTLVTVSS
VL: DIQMTQSPSSVSASVGDRVTITCRASQGISSWLAWYQQKPGKAPKLLIYAASNLQSGVPSRFSGSGSGTDFTLTISSLQPEDFATYYCQQIISLPLTFGGGTKVEIK
notes: IgG format
B21: Ab No. 6 (antibody, V domains shown)
VH: B15 VH with V51I, R98K, L99G, Y100G, H101F, L102G, L104P, A105L, A107T
VL: B20 VL with N53S, I91G, L94H, L96F
notes: IgG format
B22: Ab No. 11 (antibody, V domains shown)
VH: B17 VH with T97A, L100R, F102L, A104F, I105P, R106H, D107L, T108V
VL: B20 VL with N53S, I91G, I92N, L96I
notes: IgG format
B23: Ab No. 5 (antibody, V domains shown)
VH: B15 VH with V51I, R98K, L99G, Y100G, H101F, L102G, L104P, A105L, A107T
VL: B20 VL with M4L, G28D, N53S, I91G, I92N, S93A, L94H, L96F
notes: IgG format
B24: Ab No. 7 (antibody, V domains shown)
VH: B15 VH with V51I, R98K, L99G, Y100G, H101F, L102G, L104P, A105L, A107T
VL: B2 VL with R31S, G50S, A91G, F92S, S94V, I96F
notes: IgG format
B25: Ab No. 25 (antibody, V domains shown)
VH: EVQLVESGGGLVQPGRSLRLSCAASGFTFDDYAMHWVRQAPGKGLEWVSGISWSSGSIGYADSVKGRFTISRDNAKNSLYLQMNSLRAEDTAVYYCAKAWGRVGRANYYYYGLDVWGQGTTVTVSS
VL: EIVLTQSPATLSLSPGERATLSCRASQSVSSYLAWYQQKPGQAPRLLIYDASNRATGIPARFSGSGSGTDFTLTISSLEPEDFAVYYCQQYSNFPPITFGGGTKVEIK
notes: IgG format
B26: Ab No. 26 (antibody, V domains shown)
VH: B25 VH with K65E
VL: EIVLTQSPATLSLSPGERATLSCRASQSVSSYLAWYQQKPGQAPRLLIYDASNRATGIPARFSGSGSGTDFTLTISSLEPEDFAVYYCQQYANHLTFGGGTKVEIK
notes: IgG format
B27: Ab No. 28 (antibody, V domains shown)
VH: EVQLLESGGGLVQPGGSLRLSCAASGFTFSSYAMSWVRQAPGKGLEWVSAISGSGGSTYYADSVKGRFTISRDNSKNTLYLQMNSLRAEDTAVYYCVRGYRLVGILTGSHFDYWGQGTLVTVSS
VL: DIQMTQSPSTLSASVGDRVTITCRASQSIGSWLAWYQQKPGKAPKLLIYKASSLESGVPSRFSGSGSGTEFTLTISSLQPDDFATYYCQQYNILPPTFGGGTKVEIK
notes: IgG format
B28: Ab No. 24 (antibody, V domains shown)
VH: QITLKESGPTLVKPTQTLTLTCTFSGFSLSTSGVGVGWIRQPPGKALEWLALIYWNDDKRYSPSLKSRLTITKDTSKNQVVLTMTNMDPVDTAVYYCARSFDQGIAVWGPFDYWGQGTLVTVSS
VL: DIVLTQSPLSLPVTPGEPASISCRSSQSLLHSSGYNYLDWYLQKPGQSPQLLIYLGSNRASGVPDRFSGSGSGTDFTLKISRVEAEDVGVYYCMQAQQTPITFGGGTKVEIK
notes: IgG format

The binders below were run against T1, human CD28 (human, UniProt P10747 19-152, limits assumed) (assay: selection from yeast-presented synthetic human antibody libraries).
T1 construct: also called Cluster of Differentiation 28; Tp44

Binding result, binds:
B1
B2
B3
B4
B5
B6
B7
B8
B9
B10
B11
B12
B13
B14
B15
B16
B17
B18
B19
B20
B21
B22
B23
B24
B25
B26
B27
B28
